Legend:
Fcγ RIIa, variant 131R = target: T1, Fcγ RIIa, variant 131R (UniProt P12318 36-218, limits assumed); assay: Biacore
T1 construct: also called FcγRIIa 131R
T1 sequence (looked up): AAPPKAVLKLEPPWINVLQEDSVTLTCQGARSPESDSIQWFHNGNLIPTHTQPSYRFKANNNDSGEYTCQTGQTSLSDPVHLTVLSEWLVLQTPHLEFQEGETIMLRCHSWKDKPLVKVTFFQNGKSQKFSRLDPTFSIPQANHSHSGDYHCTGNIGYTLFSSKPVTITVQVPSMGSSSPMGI

Fcγ RIIa, variant 131H = target: T2, Fcγ RIIa, variant 131H (UniProt P12318 36-218, limits assumed); assay: Biacore
T2 construct: also called FcγRIIa 131H
T2 sequence (looked up): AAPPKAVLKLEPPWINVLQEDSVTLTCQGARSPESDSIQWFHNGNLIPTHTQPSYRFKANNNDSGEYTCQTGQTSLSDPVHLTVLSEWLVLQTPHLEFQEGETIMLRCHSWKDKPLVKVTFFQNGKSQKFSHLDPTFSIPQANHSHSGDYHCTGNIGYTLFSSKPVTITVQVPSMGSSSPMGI

Fcγ RI = target: T3, Fcγ RI (UniProt P12314 16-288, limits assumed); assay: Biacore
T3 construct: also called FcγR1

Fcγ RIIIa, variant 158F = target: T4, Fcγ RIIIa, variant 158F (UniProt P08637 17-208); assay: Biacore
T4 construct: also called FcγRIIIa 158F

Fcγ RIIb = target: T5, Fcγ RIIb (UniProt P31994 46-217, limits assumed); assay: Biacore
T5 sequence (looked up): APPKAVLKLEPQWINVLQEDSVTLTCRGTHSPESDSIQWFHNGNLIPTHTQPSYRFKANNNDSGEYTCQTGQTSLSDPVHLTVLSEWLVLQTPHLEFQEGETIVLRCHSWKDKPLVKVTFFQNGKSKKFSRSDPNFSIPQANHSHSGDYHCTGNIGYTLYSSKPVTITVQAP

human TNF-α [1] = target: T6, human TNF-α (human, UniProt P01375 77-233); assay: assay not stated; rounded figure in the dose-selection text, assay not stated
T6 construct: also called hTNF-α; hTNF

[2] = target: T7, human IL-17A/F heterodimer (human, UniProt Q16552 24-155; Q96PD4 31-163); assay: Biacore SPR, recombinant antigen, mean of 3 experiments
T7 construct: also called hIL-17A/F
T7 sequence 1: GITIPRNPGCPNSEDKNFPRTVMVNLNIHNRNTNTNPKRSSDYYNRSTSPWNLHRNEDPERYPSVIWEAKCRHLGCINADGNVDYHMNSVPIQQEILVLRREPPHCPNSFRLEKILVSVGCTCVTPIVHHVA
T7 sequence 2: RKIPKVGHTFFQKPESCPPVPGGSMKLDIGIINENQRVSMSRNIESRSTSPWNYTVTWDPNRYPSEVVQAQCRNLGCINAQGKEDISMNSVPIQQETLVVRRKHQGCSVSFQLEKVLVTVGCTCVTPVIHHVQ
From the text: (§1) The apparent association rate (ka) and dissociation rate (kd) were derived and used to calculate the overall equilibrium dissociation constant (KD) for the interaction.

human TNF-α [3] = target: T6, human TNF-α; assay: as above
From the text: as §1

human IL-17A/A homodimer = target: T8, human IL-17A/A homodimer (human, UniProt Q16552 24-155); assay: as above
T8 construct: also called hIL-17A/A
T8 sequence: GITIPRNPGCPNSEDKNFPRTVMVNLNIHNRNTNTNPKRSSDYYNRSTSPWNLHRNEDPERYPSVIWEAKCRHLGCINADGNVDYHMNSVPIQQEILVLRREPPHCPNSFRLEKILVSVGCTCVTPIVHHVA
From the text: as §1

rat IL-17 = target: T9, rat IL-17 (rat, UniProt Q61453 18-150, limits assumed); assay: Biacore SPR, 3 experiments; unit not printed in Table 10
T9 construct: also called rodent IL-17 (rat)
T9 sequence (looked up): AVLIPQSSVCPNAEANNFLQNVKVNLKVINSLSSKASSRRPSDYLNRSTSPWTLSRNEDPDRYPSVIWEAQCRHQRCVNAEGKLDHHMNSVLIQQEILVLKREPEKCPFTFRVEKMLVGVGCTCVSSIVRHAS

[4] = target: T10, monkey (Rhesus/Cynomolgus) TNF (monkey (Rhesus/Cynomolgus), UniProt P48094 77-233); assay: as above
T10 construct: also called monkey TNF; monkey rTNF

mouse IL-17 = target: T11, mouse IL-17 (mouse, UniProt Q62386 26-158, limits assumed); assay: as above
T11 construct: also called mouse IL-17A; rodent IL-17 (mouse)
T11 sequence (looked up): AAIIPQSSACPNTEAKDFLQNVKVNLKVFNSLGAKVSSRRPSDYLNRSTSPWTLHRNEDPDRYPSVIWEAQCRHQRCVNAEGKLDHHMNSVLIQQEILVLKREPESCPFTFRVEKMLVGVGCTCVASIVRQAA

[5] = target: T12, monkey (Rhesus/Cynomolgus) IL-17 (monkey (Rhesus/Cynomolgus), UniProt F6T3G5 24-155); assay: as above
T12 construct: also called monkey IL-17; monkey rIL-17
T12 sequence: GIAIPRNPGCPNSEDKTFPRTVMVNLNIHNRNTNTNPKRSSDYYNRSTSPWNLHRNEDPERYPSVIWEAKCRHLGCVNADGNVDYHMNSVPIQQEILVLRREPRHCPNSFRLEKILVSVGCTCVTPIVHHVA

mouse TNF = target: T13, mouse TNF (mouse, UniProt P06804 80-235); assay: Biacore SPR
T13 construct: also called murine TNF; rodent TNF (mouse)
T13 sequence (looked up): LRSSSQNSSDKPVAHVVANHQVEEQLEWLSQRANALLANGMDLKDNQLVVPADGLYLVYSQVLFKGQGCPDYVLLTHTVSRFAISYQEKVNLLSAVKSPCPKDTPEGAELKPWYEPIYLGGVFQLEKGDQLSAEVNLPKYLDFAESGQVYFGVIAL

rabbit TNF = target: T14, rabbit TNF (rabbit, UniProt P04924 80-235, limits assumed); assay: Biacore SPR
T14 construct: also called rabbit rTNF
T14 sequence (looked up): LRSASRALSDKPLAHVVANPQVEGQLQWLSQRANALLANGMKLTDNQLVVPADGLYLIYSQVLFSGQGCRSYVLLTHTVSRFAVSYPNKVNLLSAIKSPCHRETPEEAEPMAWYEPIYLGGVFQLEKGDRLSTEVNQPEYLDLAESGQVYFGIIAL

T6 sequence (P01375 77-233 limits assumed): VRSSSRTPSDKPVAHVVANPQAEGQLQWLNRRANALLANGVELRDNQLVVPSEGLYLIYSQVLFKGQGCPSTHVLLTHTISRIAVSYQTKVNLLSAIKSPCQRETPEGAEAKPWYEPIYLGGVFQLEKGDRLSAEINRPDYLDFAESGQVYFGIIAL
T10 sequence (P48094 77-233 limits assumed): as the sequence (P01375 77-233 limits assumed) above, with R44T, T72N, R138L counted along it
T4 sequence (P08637 17-208 limits assumed, change not shown): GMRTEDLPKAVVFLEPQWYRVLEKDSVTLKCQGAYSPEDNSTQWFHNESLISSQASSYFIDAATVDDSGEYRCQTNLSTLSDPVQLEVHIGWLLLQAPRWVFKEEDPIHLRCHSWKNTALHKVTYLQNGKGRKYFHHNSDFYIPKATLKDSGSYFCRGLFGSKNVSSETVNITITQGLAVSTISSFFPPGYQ
T3 sequence (P12314 16-288 limits assumed): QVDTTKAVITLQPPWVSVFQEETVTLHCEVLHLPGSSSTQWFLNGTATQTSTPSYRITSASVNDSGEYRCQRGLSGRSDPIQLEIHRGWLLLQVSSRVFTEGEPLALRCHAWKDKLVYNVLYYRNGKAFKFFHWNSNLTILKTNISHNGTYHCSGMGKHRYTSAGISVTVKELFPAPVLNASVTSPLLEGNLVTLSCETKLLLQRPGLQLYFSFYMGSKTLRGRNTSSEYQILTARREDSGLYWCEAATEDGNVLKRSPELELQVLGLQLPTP

B1: ABBV-257 anti-human TNF and IL-17 DVD-Ig binding protein (bispecific antibody, human IgG1, kappa, L234A L235A)
heavy: EVQLVQSGAEVKKPGASVKVSCKASGYTFANYGIIWVRQAPGQGLEWMGWINTYTGKPTYAQKFQGRVTMTTDTSTSTAYMELSSLRSEDTAVYYCARKLFTTMDVTDNAMDYWGQGTTVTVSSGGGGSGGGGSEVQLVQSGAEVKKPGSSVKVSCKASGYTFTDYEIHWVRQAPGQGLEWMGVNDPESGGTFYNQKFDGRVTLTADESTSTAYMELSSLRSEDTAVYYCTRYSKWDSFDGMDYWGQGTTVTVSSASTKGPSVFPLAPSSKSTSGGTAALGCLVKDYFPEPVTVSWNSGALTSGVHTFPAVLQSSGLYSLSSVVTVPSSSLGTQTYICNVNHKPSNTKVDKKVEPKSCDKTHTCPPCPAPEAAGGPSVFLFPPKPKDQLMISRTPEVTCVVVDVSHEDPEVKFNWYVDGVEVHNAKTKPREEQYNSTYRVVSVLTVLHQDWLNGKEYKCKVSNKALPAPIEKTISKAKGQPREPQVYTLPPSREEMTKNQVSLTCLVKGFYPSDIAVEWESNGQPENNYKTTPPVLDSDGSFFLYSKLTVDKSRWQQGNVFSCSVLHEALHNHYTQKSLSLSPGK
light: DIQMTQSPSSLSASVGDRVTITCRASQDISQYLNWYQQKPGKAPKLLIYYTSRLQSGVPSRFSGSGSGTDFTLTISSLQPEDFATYFCQQGNTWPPTFGQGTKLEIKRGGSGGGGSGDIQMTQSPSSLSASVGDRVTITCRASSGIISYIDWFQQKPGKAPKRLIYATFDLASGVPSRFSGSGSGTDYTLTISSLQPEDFATYYCRQVGSYPETFGQGTKLEIKRTVAAPSVFIFPPSDEQLKSGTASVVCLLNNFYPREAKVQWKVDNALQSGNSQESVTEQDSKDSTYSLSSTLTLSKADYEKHKVYACEVTHQGLSSPVTKSFNRGEC
modifications: N-linked glycans on the heavy chain at the asparagine commonly modified on IgG1 antibodies (fucosylated biantennary oligosaccharides with 0, 1 or 2 galactose residues)
notes: It says the constant region carries L234A, L235A and also T250Q and M428L; also called Anti-IL-17/TNF DVD-Ig Protein
- binding result (Fcγ RIIa, variant 131R): no binding
- binding result (Fcγ RIIa, variant 131H): no binding
- binding result (Fcγ RI): no binding
- binding result (Fcγ RIIIa, variant 158F): no binding
- binding result (Fcγ RIIb): no binding
- Kd (human TNF-α [1]): 0.005 nM
- Kd [2]: 0.014 nM
- koff [2]: 4.8e-06 s⁻¹
- kon [2]: 340000 M⁻¹ s⁻¹
- Kd (human TNF-α [3]): 0.0049 nM
- kon (human TNF-α [3]): 3.3e+06 M⁻¹ s⁻¹
- Kd (human IL-17A/A homodimer): 0.003 nM
- koff (human IL-17A/A homodimer): 3e-06 s⁻¹
- kon (human IL-17A/A homodimer): 1.1e+06 M⁻¹ s⁻¹
- Kd (rat IL-17): < 0.035 nM
- Kd [4]: 0.024 nM
- Kd (mouse IL-17): 0.072 nM
- Kd [5]: 0.011 nM
- binding result (mouse TNF): no binding (tested: at concentrations up to 500 nM of rTNF)
- binding result (rabbit TNF): no binding (tested: at concentrations up to 500 nM of rTNF)
